Here are results for 1 substance from PMC3987903.

The experiment deals with GST-LT-Ag (HPD to AAA) mutant (JC virus (JCV)) (UniProt P03072). Put plainly: pull-down.

Chain of human heat shock protein Hsp70 (P0DMV8 whole entry): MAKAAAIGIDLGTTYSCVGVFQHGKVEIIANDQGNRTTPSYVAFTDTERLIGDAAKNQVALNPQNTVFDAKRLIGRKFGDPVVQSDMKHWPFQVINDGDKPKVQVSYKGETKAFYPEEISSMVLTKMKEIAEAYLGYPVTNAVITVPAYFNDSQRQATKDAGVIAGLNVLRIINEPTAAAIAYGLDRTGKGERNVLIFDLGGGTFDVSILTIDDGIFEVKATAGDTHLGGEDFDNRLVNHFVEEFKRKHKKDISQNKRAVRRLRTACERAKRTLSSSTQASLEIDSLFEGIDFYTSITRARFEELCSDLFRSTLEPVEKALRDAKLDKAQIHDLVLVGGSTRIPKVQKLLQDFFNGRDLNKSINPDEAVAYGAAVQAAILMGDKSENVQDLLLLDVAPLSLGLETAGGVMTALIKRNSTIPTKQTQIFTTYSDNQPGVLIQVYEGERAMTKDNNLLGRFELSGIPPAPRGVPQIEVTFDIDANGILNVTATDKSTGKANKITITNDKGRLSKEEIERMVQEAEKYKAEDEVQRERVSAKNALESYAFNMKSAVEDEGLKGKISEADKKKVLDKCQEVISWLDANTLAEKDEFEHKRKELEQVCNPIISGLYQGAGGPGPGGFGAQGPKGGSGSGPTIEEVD

“human heat shock protein Hsp70 (from UniProt P0DMV8 1-641) (natural protein)” had a reduction of the interaction against WT of over 50%.
